Laboratory results from the DeepSol protein solubility set.

Experiment: soluble on expression in E. coli; label from the status in PepcDB or PDB records

Sequence | soluble on expression in E. coli
MKSLQSSLGNIETFKLDELCPKHEIQLTQIKGERHVVVGWNENGEAIKEVRCIPPYCEQCQEEQKKQDEEDAIADNLNAKLYMQTYNVLMSNKSYVADEFKTKTFDDFNAVTSEEKRFLEFAKGQVQKYLDGMRGNTLITGGTGIGKTLLSVAIAKGINEGYKTKGEPKSVLFVSLTEMIKQIKEGWNYGKGATLTEFEATELMKSVDYLIIDDLGAKNAVIKPKSDWEQDLLFDVLNNRENTIFNTNLDSDELKIVYNERNYSRILKGLEGNTFKAFGIKYKRYSLNQLKSNM | not soluble
SEKELRSTILFNAYKKEVFTTNTGYKSLQKRLRSNWKIQSLKDEITSEKLIGVKLWITAGPREKFTAAEFEVLKKYLDSGGDILVMLGEGGESRFDTNINFLLEEYGIMVNNDAVVRNVYYKYFHPKEALGSDGVLNREISRAAGKAVPGVIDEENSGNNAQALTFVYPFGATLSVMKPAVAVLSTGSVCFPLNRPILAFYHSKNQGFGKLAVLGSCHMFSDQYLDKEENSKIMDVVFQWLTTGDIHLNQIDAEDPEISDYTMVPDTATLSEQLRVCLQEGDENPRDFTTLFDLSIYQLDTTCLPKVIKAHEELNVKHEPLQLVQPQFEMPLPALQPAVFPPSFRELPPPPLELFDLDETFSSEKARLAQITNKCTDEDLEFYVMKCGDILGVTSKLPKDQQDAKHILEHIFFQVVEFKKLNQEAH | soluble
MSLRFVFDIDGTLCFDGRLIDQTIIDTLLQLQHDGHELIFASARPIRDLLPVLPSVFHQHTLIGANGAMISQQSKISVIKPIHTDTYHHILKIIQKYELDYIIDDDWNYAAQLDAENAIFERLDPHKLASCIDVANIDTPIKIILLNIDPAQITTILDELNKYHQELEMIHHSNEYNIDITAQNINKYTALQYIFDADVKYIAFGNDHNDIFMLQHASSGYIIGPSEAYTHAILKLDKIKHINNNTQAICKVLKSYKEGHHHHHH | soluble
MSEQKTIRFIITRQDTADSTPYDEEFEIPYRPNLNVISALMEIRRNPVNVKGEKTTPVTWDMNCLEEVCGACSMVINGKPRQSCTALIDQLEQPIRLKPMKTFPVVRDLQVDRSRMFDSLKKVKAWIPIDGTYDLGPGPRMPEKRRQWAYELSKCMTCGVCLEACPNVNSKSKFMGPAPMSQVRLFNAHPTGAMNKSERLEALMDEGGLADCGNSQNCVQSCPKGIPLTTSIAALNRDTNLQAFRNFFGSDRV | not soluble
MALLEICCYSMECALTAQRNGADRIELCAAPKEGGLTPSFGVLRSVREHITIPVHPIIRPRGGDFYYTDGEFAAMLEDIRLVRELGFPGLVTGVLTVDGDVDMSRMEKIMAAAGPLAVTFHRAFDMCANPFNALKNLADAGVARVLTSGQKADAAQGLSIIMELIAQGDAPTIMAGAGVRANNLQNFLDAGVREVHSSAGVLLPSPMRYRNQGLSMSADIQADEYSRYRVEGAAVAEMKGIIVRHQAK | not soluble
LNKTLFLGYAFLLTMATTSDKLASRSKLPDGPTGSSEEEEEFLEIPPFNKQYTESQLRAGAGYILEDFNEAQCNTAYQCLLIADQHCRTRKYFLCLASGIPCVSHVWVHDSCHANQLQNYRNYLLPAGYSLEEQRILDWQPRENPFQNLKVLLVSDQQQNFLELWSEILMTGGAASVKQHHSSAHNKDIALGVFDVVVTDPSCPASVLKCAEALQLPVVSQEWVIQCLIVGERIGFKQHPKYKHDYVSH | soluble
MAPTVERKNINLAPLKAAGVPIFFIVGGPGSGKGTQCDKIVAKYGLTHLSSGDLLRDEVKSGSPRGAQLTAIMESGALVPLEVVLDLVKEAMLKAIEKGSKGFLIDGYPREVAQGQQFESEIQEAKLVLFFDVAEETLVKRLLHRAQTSGRADDNADTIKKRLHTFVTSTAPVVDYYESKGKLVRINAEGSVDDIFAVVVANLDKATSKL | soluble
MAHHHHHHMERVRYRSSVTRKLIDLYDEVAELYDCRENMRNQVTQAMRIDPRYCKERHGEVRLACKPTLQQQSAVESVENALEGLHDAVHELVAAYLTQEEKRHLGIDTHLFQTSTEKANTYQYAPPPPKPRSSSSNAARRARQKTSAAATFPHPSTRHREVRVEKEEGDAHENTAATAPTPAAPTLTVPVDTPAPQQQPLTNTTTNKKISNSVWDSSAPAASAAFSSAAISLPASSVKLAQQSVVELSQLAAPQQPVTSSSQPLCSSIVHVAAPEKHEDGSGTAAEQKPVAASHTQDTEIAEGTPERVVASAVSASTLSVTWPTDTGAGSTLHLPTGSQPPLATERLLKVPVSSPDALTPIAKTPPAIPPRPTSVQAQAQEPALTSANPTPPPSHPPSQDAVAASCNDASAAKASASQARTAVVGFKRFLIDSDSNSSC | soluble
MEIRVANKYALGKKLGSGSFGDIYVAKDIVTMEEFAVKLESTRSKHPQLLYESKLYKILGGGIGVPKVYWYGIEGDFTIMVLDLLGPSLEDLFTLCNRKFSLKTVLMTADQMLNRIEYVHSKNFIHRDIKPDNFLIGRGKKVTLIHIIDFGLAKKYRDSRSHTHIPYKEGKNLTGTARYASINTHLGIEQSRRDDIEALGYVLMYFLRGSLPWQGLKAISKKDKYDKIMEKKISTSVEVLCRNASFEFVTYLNYCRSLRFEDRPDYTYLRRLLKDLFIREGFTYDFLFDWTCVYASEKDKKKMLENKNRFDQTADQEGRVKQN | not soluble
MKHYDSMDQELITMPISNAFLKLFSEFVDNYARNGTPSFYHWAKEQNHEVINKFFHELLEIIKSNTETFHDVSIIEHLNATVLLSAKTNPYLLDCWISFITKYNAETNSFTPIGASMHIKVGPEGTPSERIIRELKESLVMTQQAFILAQKANATEVDSLKRQLEQTKQENERLVTQNQFLKDQVRAEKTFADLNPQINNARQQLSALTELIQTLSEITNAKPKIETVSSLSIPVVTENKSELLKENSCSVASVSKEVTPAISQEPKKRPVPPPPNDTDGQALSPNIPPKEDVSIKVTIPSMPKPNSTQPAAKNSGFFSGDGFLKELNAKIKERKERPKDEPHTTPVEKKNL | not soluble
MKNEMLALILAGGQGTRLGKLTQSIAKPAVQFGGRYRIIDFALSNCANSGIHNVGVVTQYQPLALNNHIGNGSSWGLDGINSGVSILQPYSASEGNRWFEGTSHAIYQNIDYIDSVNPEYVLILSGDHIYKMDYDDMLQSHKDNNASLTVAVLDVPLKEASRFGIMNTDANNRIVEFEEKPAQPKSTKASMGIYIFDWQRLRNMLVAAEKSKVGMSDFGKNVIPNYLESGESVYAYEFSGYWKDVGTIESLWEANMEYISPENALDSRNRQWKIYSRNLISPPNFLGANAHVEDSLVVDGCFVDGTVKHSILSTGAQVREGAEVLDSVIMSGAIIGQGAKIKRAIIGEGAIISDGVEIDGTDEVQVVGYNEVVGVATDED | not soluble
MTSAHDIDLQQILTDRLTGASPDLLRELLTMFIHTLMGAEADALCGAGYGQRSEERTNSRNGYRHRDFDTRVGTLDVAIPKLRSGSYFPDWLLERRKRAEKALTTVVATCYLLGVSTRRMDRLVDTLGITGLSKSQVSVMAKDLDTQVEAFRSRPLDTGPYTFVAADALVLKVRENGRVVNVHTLVAVGVNAEGYREILGVDVTSSEDGAGWLAFFRSLVARGLGGVRLVTSDAHAGLVAAIGGTLPGASWQRCRTHYSTNLMAVTPKASWPWVKTLLHSVYDQPDADSVHAQYDRIIGALSEKLPRVADHLDAARPDLLAFTAFPKQIWKQIWSNNPQERLNKEIRRRTDVVGIFPDRTALIRLVGAVLAEQHDEWIEGRRYLGLDVLARSRNDKPTDSSTESTEEVTPALTA | not soluble
LINQAEVDIYDIPVALITEQYMAYIHTMQELQLDVASEYLVMAATLLQIKSKMLLPKQEEIFDETFEYEEEDPREELMFRLIEYRRYKEAAQELKEKEGERSQVHTRLPDNLDDYLTEEERQRQSIQGVTLFDMLAAYQKLLKRRAYSRPRTSTVKVEEYSIDERMTDILMDLEKCNGKCRFQDLFV | not soluble
MGSDKIHHHHHHLTQLAQCSTSSISQSSIYLPYRDGQLHLRQLLPSAPDFSKTPILMLHGAMSNGRVFYSQSGRGLGCFLAKAGFVVYVLDTAGRGLSLPKIDRDSTLGQGEVIREQLPLVQQTILDLHQKACQEQTAQYDRKAVAPSQVHWCAHSWGGVLMASSLARYPELQQSVRSLLTFGSKRTIRVKSFKKWLMVDVFWNRLAPGLAMGQGYLAADKLRIGMDNESRASLVQSIDWVQGDWIDHDDGFDYAKAAKRADWPPAWFISGLNDTVLGHPEDVADMVEECGFKRVKSTLLSKENGFKHDYGHADMLTHLDATSDHFPKISDWYLSFDLAVLNG | not soluble
MNIEQLSQSLEHMANQAATLDRQRGEHHVPLFDERLFSCRSRLLTPCVKEAKSTLDAIIREQNENKLTALRAEYLTERLVAQIGAIQREISTTKIRKNEIKHSSHFRKPINVLYQELAQHQEWARRLREMVLEKERAVETAPSFMRAEAQKVLLATEQRLARCEAALLKLENQITHREKHQ | soluble
VTGAIDPNLFTDAVLQVAAAAGRDETLPMLTGIHMEIDGENVTLTATDRFRLALRRFTWSPANPEAKAKLLIPAKNLSDNARSLDSGSTEPVEIAVGTGENIGAEGLFGIHIDNRQTTTRMLDADFPNVSPLL | not soluble
MEQNIATAQVSVARPNWDKSRLVSRIVHLGCGAFHRAHQALFTHHLLEKSDSDWGICEVNLMPGNDARLIANLKAQNLLYTVAERGAESTELKIIGSMKEALHPEFDGHAGILAAMARPETAIVSLTVTEKGYCTDPASGELDVNNPLIQNDLAHPQQPKSAIGYIVEALNMRREQGLKAFTVLSCDNVRENGHVAKAAVLGLAKARDAALAAWIADNVTFPCTMVDRIVPAATEETLQLVADQLGVYDPCAIACEPFRQWVIEDNFVNGRPDWDTVGAQFVADVVPFEMMKLRMLNGSHSFLAYLGYLGGYDTIADTMTNPAYRRAALALMLDEQAPTLSMPEGTDLEGYANLLIARFTNPSLKHRTWQIAMDGSQKLPQRLLDPVRLHLQQGDDYRRLTLGVAGWMRYVGGVDEQGKTIDVVDPLLAQYQAIHQQYQTPEERVRGLLAIESIFGNDLPKNHEFVQAVTDAYQQLLQNGAKATVEALAK | not soluble
MVITKIVGHIDDLSHQIKKVDWLEVEWEDLNKRILRKETENGTDIAIKLENSGTLRYGDVLYESDDTLIAIRTKLEKVYVIKPQTMQEMGKMAFEIGNRHTMCIIEDDEILVRYDKTLEKLIDEVGVSYEQSERRFKEPFKYRGHQH | soluble
MGTVLCSCLLGDNAKVRLKLSKMLEEEASGFYPDVLPEGSVSICEVEMKGCRREFYADRRSEEIEIGTPVIVEADGGFDMGVVYSTGRIALRKLQLKGLVSEVEKLPAIMRRATEEEVREFTEIRKREPEIREACLKRIERHQLDMKLVDIDLRLDQQKLSVYYTATHRIDFRGLVRDLAGEFKARIQMVQITTREEARRTNAQGSCGCALCCSTWMQKIHSNPFAEKPQMPDSMNGDNFSFNTIGLCNRPKCCLGFSKTNGKNGNCHHGKVRQNGWPSVGTTFTVRDGNAVVEGVDQQKKSIWIRYVSTGQKRRISLDQYNNMAGKRQGGQALEHHHHHH | not soluble
MAHHHHHHMTTVPESTCAASCESQLCLLCDTPYTSWTEHSREHAHVARSVVCRFFVMPERSESIMQHLERHIALDLKEVDALTDRKVGRRRERLLAGLVHLVEKGVLRDSIPTLPFSTPARGGTDKGRGAGISGVTLGVDADLFLNRVLVGEAFLRREVLDRCARLMPSLTAMELNSVVTYLTSTRQMARIFDELSLIELLVTRSGLESAPANVNTATAAATAAGRAAESASVEPLSETAAAPLPDSDASTESPPAHQPCSSTLAASLPSPPRWSLSREDKVYIMCACLGELHRFHEQERPRSVISKAAADAIVLNVLAGHGRENLVSELVHETLQRIVDEGTVVWRQHQEDVKRRGRSSEANVAGAARISARRAPRTDSTVSEDLCYVRTAPLPSAPSPRPASQVTLDSAAAEQLVSSYLPFNDVDQLSGAETDAVKATAEAPSRSSPDRTCTTSPECISVLHTSEKDWGPLTAELRKRAEDWNRLPFVPSTPELKASKMPR | not soluble
